Test results: CN114437226A (HANGZHOU CYANINE INGENKANG BIOTECHNOLOGY LTD COMPANY, dated 2022)
Positions count from the first letter of the chain named. In names and notes the source's numbering stands. Blank lines part the entries; values can stand above or below the binder they belong to.

Molecular target: T1, 人白介素22(IL22)(Sino Biological) (human, UniProt Q9GZX6 34-179)
T1 sequence (looked up): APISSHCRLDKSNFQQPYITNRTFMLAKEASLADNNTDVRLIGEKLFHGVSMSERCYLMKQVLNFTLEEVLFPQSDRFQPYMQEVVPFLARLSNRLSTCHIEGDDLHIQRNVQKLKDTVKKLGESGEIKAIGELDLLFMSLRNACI
Assay: ELISA, IL22-coated plate (Fig 11)

binding result: binds
B1: FezHλ-ClaH(K218C)κ(F118C) (bispecific antibody, human IgG1, lambda)
heavy 1: QVQLVQSGAEVKKPGASVKVSCKASGYTFTNYYMHWVRQAPGQGLEWVGWINPYTGSAFYAQKFRGRVTMTRDTSISTAYMELSRLRSDDTAVYYCAREPEKFDSDDSDVWGRGTLVTVSSASTKGPSVFPLAPSSKSTSGGTAALGCLVKDYFPEPVTVSWNSGALTSGVHTFPAVLQSSGLYSLSSVVTVPSSSLGTQTYICNVNHKPSNTKVDKKVEPKSCDKTHTCPPCPAPELLGGPSVFLFPPKPKDTLMISRTPEVTCVVVDVSHEDPEVKFNWYVDGVEVHNAKTKPREEQYNSTYRVVSVLTVLHQDWLNGKEYKCKVSNKALPAPIEKTISKAKGQPREPQVYTLPPSREEMTKNQVSLSCAVKGFYPSDIAVEWESNGQPENNYKTTPPVLDSDGSFFLVSKLTVDKSRWQQGNVFSCSVMHEALHNRFTQKSLSLSPGHHHHHH
light 1: QAVLTQPPSVSGAPGQRVTISCTGSSSNIGAGYGVHWYQQLPGTAPKLLIYGDSNRPSGVPDRFSGSKSGTSASLAITGLQAEDEADYYCQSYDNSLSGYVFGGGTQLTVLGQPKAAPSVTLFPPSSEELQANKATLVCLISDFYPGAVTVAWKADSSPVKAGVETTTPSKQSNNKYAASSYLSLTPEQWKSHRSYSCQVTHEGSTVEKTVAPTECS
heavy 2: not shown
light 2: AIQMTQSPSSLSASVGDRVTITCQASQSINNELSWYQQKPGKAPKLLIYRASTLASGVPSRFSGSGSGTDFTLTISSLQPDDFATYYCQQGYSLRNIDNAFGGGTKVEIKRTVAAPSVFICPPSDEQLKSGTASVVCLLNNFYPREAKVQWKVDNALQSGNSQESVTEQDSKDSTYSLSSTLTLSKADYEKHKVYACEVTHQGLSSPVTKSFNRGEV
notes: also called K218C/F118C

binding result: binds
B2: FezHλ-ClaH(S132C)κ(F116C) (bispecific antibody, human IgG1, lambda)
heavy 1: B1 heavy 1
light 1: B1 light 1
heavy 2: not shown
light 2: B1 light 2 with F119C, C121F
notes: also called S132C/F116C
